Data on six molecules can be found in patent EP3168228A1 (Spiber Technologies AB, dated 2017).

Data set [1] concerns the molecule itself. Briefly: SDS-PAGE under non-reducing conditions after thrombin cleavage, self-association.
For data set [2], the target named is wildtype NT (NTwt), N-terminal fragment of Euprosthenops australis major spidroin 1 (MaSp1) (Euprosthenops australis). Kind of data set: tryptophan fluorescence ratio 339/351 nm against pH, 5 µM protein, two-state fit of the monomer-dimer equilibrium.
Data set [3] concerns the molecule itself. Briefly: tryptophan fluorescence ratio 339/351 nm against pH (self-association, dimerization).
Data set [4] concerns the molecule itself. Briefly: gel filtration on Superdex-200, self-association. A general note: SEC sorts molecules by how far they enter the pores of the column.
Data set [5] concerns the molecule itself. Kind of data set: gel filtration in 20 mM Tris, pH 8, self-association.

B1: Bri2113-231 protein (Bri2-BRICHOS), truncated BRICHOS domain of Bri2 (other)
chain: QTIEENIKIFEEEEVEFISVPVPEFADSDPANIVHDFNKKLTAYLDLNLDKCYVIPLNTSIVMPPRNLLELLINIKAGTYLPQSYLIHEHMVITDRIENIDHLGFFIYRLCHDKETYKL
notes: Released from the NT fusion proteins by thrombin; A 12 kDa band is said to be a truncated form, probably cleaved unspecifically by thrombin; also called Bri2 BRICHOS domain
With B1, the binding result in data set [1] is recorded as “binds”.

B2: wildtype NT (NTwt), N-terminal fragment of Euprosthenops australis major spidroin 1 (MaSp1) (protein)
chain: SHTTPWTNPGLAENFMNSFMQGLSSMPGFTASQLDDMSTIAQSMVQSIQSLAAQGRTSPNKLQALNMAFASSMAEIAASEEGGGSLSTKTSSIASAMSNAFLQTTGVVNQPFINEITQLVSMFAQAGMNDVSA
With B2, in data set [2], the pKa of dimerization was found to be 6.5 pH.

B3: NTD40K/K65D, charge-reversed double mutant of the NT fragment of Euprosthenops australis MaSp1 (other)
chain: SHTTPWTNPGLAENFMNSFMQGLSSMPGFTASQLDKMSTIAQSMVQSIQSLAAQGRTSPNDLQALNMAFASSMAEIAASEEGGGSLSTKTSSIASAMSNAFLQTTGVVNQPFINEITQLVSMFAQAGMNDVSA
notes: also called charge-reversed NT mutant; mutant NT
In the case of B3, in data set [3], the binding result is reported as “no binding (tested: 5 µM protein, pH 5.6-8.0)”.

B4: NTD40K/K65D-β17 fusion protein (other)
chain: MGHHHHHHMSHTTPWTNPGLAENFMNSFMQGLSSMPGFTASQLDKMSTIAQSMVQSIQSLAAQGRTSPNDLQALNMAFASSMAEIAASEEGGGSLSTKTSSIASAMSNAFLQTTGVVNQPFINEITQLVSMFAQAGMNDVSAGNSLVPRGSMGEQKLISEEDLGMQISMDYEIKFHGDGDNFDLNLDDSGGDLQLQIRGPGGRVHVHIHSSSGKVDFHVNNDGGDVEVKMH
Regarding B4, in data set [4], the binding result was “binds”.

B5: NTwt-Bri2113-231 fusion protein (other)
chain: MGHHHHHHMSHTTPWTNPGLAENFMNSFMQGLSSMPGFTASQLDDMSTIAQSMVQSIQSLAAQGRTSPNKLQALNMAFASSMAEIAASEEGGGSLSTKTSSIASAMSNAFLQTTGVVNQPFINEITQLVSMFAQAGMNDVSAGNSLVPRGSQTIEENIKIFEEEEVEFISVPVPEFADSDPANIVHDFNKKLTAYLDLNLDKCYVIPLNTSIVMPPRNLLELLINIKAGTYLPQSYLIHEHMVITDRIENIDHLGFFIYRLCHDKETYKL
notes: also called NTwt-Bri2-BRICHOS
As for B5, the binding result in data set [5] was “binds”.

B6: NTD40K/K65D-Bri2113-231 fusion protein (other)
chain: MGHHHHHHMSHTTPWTNPGLAENFMNSFMQGLSSMPGFTASQLDKMSTIAQSMVQSIQSLAAQGRTSPNDLQALNMAFASSMAEIAASEEGGGSLSTKTSSIASAMSNAFLQTTGVVNQPFINEITQLVSMFAQAGMNDVSAGNSLVPRGSQTIEENIKIFEEEEVEFISVPVPEFADSDPANIVHDFNKKLTAYLDLNLDKCYVIPLNTSIVMPPRNLLELLINIKAGTYLPQSYLIHEHMVITDRIENIDHLGFFIYRLCHDKETYKL
notes: also called NTD40K/K65D-Bri2-BRICHOS
Turning to B6, in data set [5], the binding result is listed as “binds”.
